# Laboratory results as given in paper PMC10065799, “High-throughput profiling of sequence recognition by tyrosine kinases and SH2 domains using bacterial peptide display” (eLife, 2023).
# Biological target: human c-Src kinase domain (residues 260-528) (human) (UniProt P12931)
binder,measurement,value
Ac-GPDECIYDMFPFKKKG-NH2 [Src Consensus peptide Ac-…-NH2],"KM (μM) of phosphorylation, Michaelis-Menten analysis, ADP-Quest assay",196 µM
